In US20260273048A1, “METHODS OF IMPROVING TRANSPLANT SURVIVAL USING IL-2 RECEPTOR GAMMA CHAIN ANTIBODIES” (Regeneron Pharmaceuticals, Inc., priority 2023, published 2026):

B1: REGN7257: fully human IL-2Rγ antibody comprising the HCVR of SEQ ID NO: 1 and the LCVR of SEQ ID NO:5 (antibody, V domains shown)
VH: EVQLVESGGGLVQPGGSLRLSCAASGFIFSSYEMHWVRQAPGKGLEWISYISSSGTTIYYADSVKGRFTISRDNAKNSLYLHMNSLRAEDTAVYYCTRARITGTFDVFDIWGQGTMVTVSS
VL: DIQMTQSPSSLSASVGDRVTITCRASQSISSYLNWYQQKPGKAPKLLIFAASNLQSGVPSRFSGSRSGTDFTLTISSLQPEDFATYYCQQNYNIPYTFGQGTKLEIK

Columns and labels:
[1] = tested on: BALB/cJ tail skin graft on VG mice humanized for IL2RG; assay: In vivo skin graft rejection model, REGN7257 with MMF (Example 4); design: species or system mouse; conditions: REGN7257 25 mg/kg s.c. 2 times per week from 2 days prior to transplant; MMF 100 mg/kg i.p. daily from day of transplant; until rejection; FIG. 9
Source text: (§1) BALB/cJ mice obtained from The Jackson Laboratory (Bar Harbor, ME) were used as skin graft donors, and MHC mismatched Velocigene® (VG) background mice (C57BL/6NTac (75%)/129S6SvEvTac (25%)) from the Regeneron Velocigene® breeding colony that were genetically modified to replace the endogenous IL2RG ectodomain with the corresponding human sequences were used as recipients. The skin graft was obtained from the tail of the donor mice. The skin was the peeled off using forceps and punched with a 10 mm diameter biopsy punch.
REGN7257 was administered subcutaneously at doses of 25 mg/kg at a frequency of 2 times per week starting 2 days prior to transplant, and continuing until rejection. MMF was administered intraperitoneally daily at a dose 100 mg/kg starting on the day of transplant, and continuing until rejection. Recipients with the surgical site shaved were anesthetized by isoflurane via a nose cone and administered an analgesic (buprenorphine-sustained release) (ZooPharm). The shaved dorsal area was swabbed with applications of povidone-iodine and alcohol. The graft bed was created midway laterally between the dorsal and ventral sides of the mouse by pinching skin with forceps followed by skin excision utilizing a sterile 10 mm diameter biopsy skin punch. […]

[2] = tested on: BALB/cJ tail skin graft on VG mice humanized for IL2RG; assay: In vivo skin graft rejection model, REGN7257 monotherapy (Example 1); design: species or system mouse; conditions: 25 mg/kg s.c. 2 times per week starting 3 weeks prior to transplant until rejection
Source text: as §1
As detailed in Table 2 below, VG mice (humanized for IL2RG), used as graft recipients, were administered no treatment (negative control), an isotype control (REGN1945), or REGN7257 subcutaneously at doses 25 mg/kg at a frequency of 2 times per week starting 3 weeks prior to transplant, and continuing until rejection (FIG. 1). […]
These grafts will display scabbing and contraction several […] from bandage removal. […] The complete rejection timepoint is recorded as the first day where 100% of the graft tissue was necrotic. Rejection onset was recorded as the first day where there were signs of rejection (i.e., redness). Significance was determined by Log-rank (Mantel-Cox) test with Bonferroni correction (adjusted p value 0.00555, K=9).

[3] = tested on: BALB/cJ tail skin graft on VG mice humanized for IL2RG; assay: In vivo skin graft rejection model, REGN7257 induction with abatacept maintenance (Example 2); design: species or system mouse; conditions: induction: 2 doses 25 mg/kg s.c. (2 days prior and day of transplant); maintenance: 25 mg/kg s.c. 2 times per week from day of transplant until rejection; FIG. 5
Description: (2) “Scabbing” and contraction of the graft at later times was used as indicators of graft rejection. The complete rejection timepoint is recorded as the first day where 100% of the graft tissue was necrotic. Significance was determined by Log-rank (Mantel-Cox) test with Bonferroni correction (α=0.005, k=10).

[4] = tested on: donor-specific antibodies (total IgG binding to CT26.WT cells); assay: Detection of donor specific antibodies by flow cytometry (Example 1); type: in vivo, mouse; conditions: blood sampled day 56 post-transplant; MFI at 1/512 serum dilution; FIG. 3
Description: Detection of donor specific antibodies by flow cytometry: Blood was sampled at the day 56 post-transplant timepoint to assess formation of donor-specific antibodies. CT26.WT (ATCC® CRL-2638™) cells were cultured in tissue culture flasks to 80% confluent. Cells were washed with 1×DPBS and dissociated with TrypLE Express reagent (Gibco) by incubating at room temperature for 5 minutes and washing flask with complete RPMI 1640 media. Cells were then centrifuged (500 g, 10 minutes), and resuspended at 5 million cells/ml with 1×DPBS with 1:50 dilution of 4 μg/mL of Fc block (Tonbo) for 15 minutes at room temperature. The suspension was plated at 250,000 cells/well (50 μL) in a 384 well V-bottom plate.
50 μL of serially diluted sample serum from transplanted mice and from non-engrafted wild type VG mouse (C57BL/6NTac (75%)/129S6SvEvTac (25%)) and wild type BALB/cJ mouse obtained from The Jackson Laboratory was added to its respective well and incubated at 37° C. for 45 minutes. Following 2 washes with MACS buffer (500 g, 4 minutes), the cells were resuspended in 50 μL of LIVE/DEAD™ Fixable Blue Dead Cell Stain Kit (Invitrogen) diluted 1:500 in 1×DPBS at 50 μL total volume per well and incubated at room temperature for 15 minutes. […] Acquired events were analyzed with FlowJo (BD). […]

Molecule	Median Survival Time [MST] of skin graft [1]	overall skin graft survival (time to complete rejection) ([2]; FIG. 2B)	onset of skin graft rejection ([2]; vs no mAb and isotype control, FIG. 2A)	skin graft median survival time [MST] (time to complete skin graft rejection) [3]	generation of donor-specific antibodies [4]
COc1c(C)c2c(c(O)c1C/C=C(\C)CCC(=O)OCCN1CCOCC1)C(=O)OC2 [MMF, mycophenolate mofetil, reference compound]	10				
B1	12	improved	delayed	11 days	prevented
